From US20110081354A1 (Bristol-Myers Squibb, published 2011)
Positions count from the first letter of the chain named. Values belong to the binder of their own block, whether it stands above or below them.

Columns and labels:
[1] = molecular target: T1, CTLA-4-Ig fusion protein comprising the extracellular domain of human CTLA-4 fused to the Fc region of human … (human, UniProt P16410 36-161); assay: blocking assay, flow cytometry: inhibition of CTLA-4-Ig binding to mouse B7-1 expressing cells
T1 construct: extracellular domain; also called CTLA-4 Hu Ig; soluble human CTLA-4 fusion protein; not shown: Fc region of human immunoglobulin
T1 sequence (looked up): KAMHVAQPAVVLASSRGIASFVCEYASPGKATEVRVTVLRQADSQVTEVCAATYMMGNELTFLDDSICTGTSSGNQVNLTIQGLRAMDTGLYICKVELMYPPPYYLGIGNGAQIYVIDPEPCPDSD

[2] = molecular target: T2, chimeric CTLA-4 protein comprising the extracellular and transmembrane domains of human CTLA-4 linked to the … (human; murine, UniProt P16410 36-187; P24161 52-164, limits assumed); assay: flow cytometry on cells expressing chimeric human CTLA-4/CD3zeta; PE anti-human IgG detection
T2 construct: domain: extracellular and transmembrane domains;domain: intracellular domain; also called cell surface CTLA4; hCTLA4+ cells

- EC50 [1]: 7.41 nM
- EC50 [2]: 0.661 nM
B1: 3A4 human monoclonal antibody (antibody, V domains shown)
VH: QVQVVESGGGVVQPGRSLRLSCAASGFTFSSYGMHWVRQAPGKGLEWVAVIWYDGSNKYYVDSVKGRFTISRDNSKNTLYLQMNSLRAEDTAVYYCARGPGYSSSFDYWGQGTLVTVSS
VL: DIQMTQSPSSLSASVGDRVTITCRASQGISSWLAWYQQKPEKAPKSLIYAASSLQSGVPSRFSGSGSGTDFTLTISSLQPEDFATYYCQQYNSYPLTFGGGTKVEIK
notes: Purified human IgG kappa antibody from a hybridoma (HuMab mouse); also called mAb 3A4

- EC50 [1]: 15.3 nM
- EC50 [2]: 0.247 nM
B2: 6C10 human monoclonal antibody (antibody, V domains shown)
VH: B1 VH with V4L, A23T, Y32H, I51V, Y53F, P100S, S105G
VL: B1 VL
notes: Purified human IgG kappa antibody from a hybridoma (HuMab mouse); also called mAb 6C10
